From US20160311925A1 (UNIVERSITY OF ROCHESTER, published 2016)

How the values were obtained:
[1] = target: T1, His-AmdR1R2-B (Staphylococcus aureus, UniProt Q5HH31 198-775); assay: SPR, Biacore T-200; immobilized (captured) mAb, soluble His-AmdR1R2-B
T1 construct: also called rAmd; soluble Amd; not shown: BirA biotinylation site
T1 sequence: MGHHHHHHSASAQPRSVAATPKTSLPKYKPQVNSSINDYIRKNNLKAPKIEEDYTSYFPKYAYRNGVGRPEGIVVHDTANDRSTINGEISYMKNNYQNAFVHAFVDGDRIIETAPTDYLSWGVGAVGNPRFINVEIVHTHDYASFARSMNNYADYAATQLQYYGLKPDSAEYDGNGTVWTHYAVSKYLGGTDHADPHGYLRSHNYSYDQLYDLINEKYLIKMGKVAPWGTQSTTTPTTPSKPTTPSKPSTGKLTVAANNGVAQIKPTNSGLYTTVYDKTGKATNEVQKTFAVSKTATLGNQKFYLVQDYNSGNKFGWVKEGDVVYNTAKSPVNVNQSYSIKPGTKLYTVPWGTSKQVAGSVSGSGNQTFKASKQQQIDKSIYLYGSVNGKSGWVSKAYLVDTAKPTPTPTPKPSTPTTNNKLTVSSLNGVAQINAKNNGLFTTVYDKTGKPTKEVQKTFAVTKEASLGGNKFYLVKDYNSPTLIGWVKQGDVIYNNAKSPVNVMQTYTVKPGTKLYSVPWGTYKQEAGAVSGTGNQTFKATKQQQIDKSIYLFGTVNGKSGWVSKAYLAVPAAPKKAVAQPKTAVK

[2] = target: T1, His-AmdR1R2-B; assay: SPR, Biacore T-200; immobilized (captured) mAb, soluble His-AmdR1R2-B; average
Description: (§1) The capture (association, t=0 to 120 sec) and release (dissociation, t=120 to 420 sec) phases are presented. […] Measurements were made according the manufacturer's instructions and kinetic data were analyzed using biomolecular interaction analysis (BIA) evaluation software (version 3.1) from Biacore AB.
(§2) The affinity of immobilized anti-Amd mAbs for soluble His-AmdR1R2-B was measured using surface plasmon resonance technology on a Biacore T-200.

[3] = target: T1, His-AmdR1R2-B; assay: SPR, Biacore T-200; mAb captured by rabbit anti-mouse Fc IgG on a CM-5 chip, Amd at 1.56 to 25 nM; the single run shown in FIG. 4
Description: as §1, §2

[4] = target: T1, His-AmdR1R2-B; assay: cell-based or functional assay
[5] = target: T1, His-AmdR1R2-B; assay: SPR (Biacore T-200): Ab 1.6 (20nM) captured on immobilized rabbit anti-mouse Fc (RamFc), soluble Amd flowed at 1.56 to 25 nM
Description: as §1, §2

B1: anti-Amd mAb Amd2.2 (antibody, V domains shown)
VH: ESGPELVKPGASVKISCKASGYTFTDYNMHWVRQSHGKSLEWIGYIYPYNGGTGYNQKFKSKATLTVDNSSSTAYMELRSLTSEDSAVYYCAREDGYYGYFDYWGQGTTLTGSS
VL: EIVLTQSPAITAASLGQKVTITCSASSSVNYMHWYQQKSGTSPKPWIYEISKLASGVPARFSGSGSGTSYSLTISSMEAEDAAIYYCQQWNYPLITFGAGTKLELK
notes: Mouse hybridoma mAb (Fusion #2), IgG1; The VH is incomplete at the N-terminus
B1 showed a Kd [1] of 1.4 nM.

B2: anti-Amd mAb Amd1.1 (antibody, IgG1, V domains shown)
VH: QQSGAELVKPGASVKLSCTASGFNIKDTYIHWVKQRPEQGLEWIGRIDPANGITNYDPKFQGRATITADTSSNIAYLQLTSLTSEGTAVYYCARGGYLSPYAMDYWGQGTSVTVSS
VL: ENVLTQSPAIMSASLGEKVTMTCRASSSVNYMFWFQQKSDASPKLWIYYTSNLAPGVPARFSGSGSGNSYSLTISSMEGEDAATYYCQEFTSFPYTFG
Binder B2 has a Kd [1] of 2.5 nM.

B3: anti-Amd mAb Amd1.9 (antibody, V domains shown)
VH: VESGGGLVKPGGSLKLSCAASGFTFSSYAMSWVRQTPKKSLEWVASITSGGSAYYPDSVKGRFTISRDNARNILNLQMSSLRSEDTAMYYCARDDGYFDYWGQGTTLTVSS
VL: DIQMTQSPASLSVSVGETVTITCRTSENIFSNFAWYQQQPGKSPQLLVYGATNLADGVPSRFSGSGSGTQYSLKITSLQSEDFGSYYCQHFWGSPWTF
notes: Mouse hybridoma mAb (Fusion #1), IgG1; The variable domains are incomplete at the termini
B3 gave a Kd [1] of 2.6 nM.

B4: anti-Amd mAb Amd1.11 (antibody, V domains shown)
VH: QIQLVQSGPELKKPGETVKISCKASGYTFTNYGMNWVKQAPGKGLEWMGWINTYTGEPTYADDFKGRFAFSLETSASTAYLLINNLKNEDTATYFCARRDGYFDAMDYWGQGTSVTVSS
VL: DILLTQSPAILSVSPGERVSFSCRASQSIGTSIHWYQQRTNGSPRLLIKYASESISGIPSRFSGSGSGTDFTLSINSVESEDIADYYCQQSNSWPALTFG
notes: Mouse hybridoma mAb (Fusion #1), IgG1; The VL is incomplete at the C-terminus
B4 was tested, and the Kd [1] was 3.4 nM.

B5: anti-Amd mAb Amd1.6 (antibody, IgG1, V domains shown)
VH: QSGTVLARPGTSVKMSCKASGYSFTNYWMHWVRQRPGQGLEWIGSIYPGNSDTTYNQKFKDKAKLTAVTSASTAYMELSSLTNEDSAVYYCTGDDYSRFSYWGQGTLVTVSA
VL: SIVMTQTPKFLLVSAGDRLTITCKASQSVSNDVAWYQQKPGQSPKLLIYYTSNRYTGVPDRFTGSGYGTDFTFTISTVQAEDLAVYFCQQDYNSPWTFGGGTK
notes: Mouse hybridoma mAb (Fusion #1), IgG1; The variable domains are incomplete at the termini; also called mAb1.6
B5 was tested, and the Kd [2] was 2.1 nM, the Kd [3] was ~1 nM and the “IC50 (read off the curve)” value [4] was ~2 µg/mL. For the same binder, the Kd [5] was 1.03 nM.
